The values below come from paper PMC2199009.

As usually defined, the IC50 is the concentration that gives 50% inhibition. Low readings indicate greater potency, high ones weaker potency.

Experiment [1] deals with GPI-anchored form of the LFA-1 I domain (I-GPI), stably expressed on baby hamster kidney cells (UniProt P20701). Kind of experiment: radioligand binding.
The target of experiment [2] is purified full length LFA-1 (lymphocyte function–associated antigen 1) (human (endogenous in JY)) (UniProt P20701). Kind of experiment: adhesion in a parallel plate flow cell.

UniProt P20701, sequence (P20701 26-1170, chain 1 of 2): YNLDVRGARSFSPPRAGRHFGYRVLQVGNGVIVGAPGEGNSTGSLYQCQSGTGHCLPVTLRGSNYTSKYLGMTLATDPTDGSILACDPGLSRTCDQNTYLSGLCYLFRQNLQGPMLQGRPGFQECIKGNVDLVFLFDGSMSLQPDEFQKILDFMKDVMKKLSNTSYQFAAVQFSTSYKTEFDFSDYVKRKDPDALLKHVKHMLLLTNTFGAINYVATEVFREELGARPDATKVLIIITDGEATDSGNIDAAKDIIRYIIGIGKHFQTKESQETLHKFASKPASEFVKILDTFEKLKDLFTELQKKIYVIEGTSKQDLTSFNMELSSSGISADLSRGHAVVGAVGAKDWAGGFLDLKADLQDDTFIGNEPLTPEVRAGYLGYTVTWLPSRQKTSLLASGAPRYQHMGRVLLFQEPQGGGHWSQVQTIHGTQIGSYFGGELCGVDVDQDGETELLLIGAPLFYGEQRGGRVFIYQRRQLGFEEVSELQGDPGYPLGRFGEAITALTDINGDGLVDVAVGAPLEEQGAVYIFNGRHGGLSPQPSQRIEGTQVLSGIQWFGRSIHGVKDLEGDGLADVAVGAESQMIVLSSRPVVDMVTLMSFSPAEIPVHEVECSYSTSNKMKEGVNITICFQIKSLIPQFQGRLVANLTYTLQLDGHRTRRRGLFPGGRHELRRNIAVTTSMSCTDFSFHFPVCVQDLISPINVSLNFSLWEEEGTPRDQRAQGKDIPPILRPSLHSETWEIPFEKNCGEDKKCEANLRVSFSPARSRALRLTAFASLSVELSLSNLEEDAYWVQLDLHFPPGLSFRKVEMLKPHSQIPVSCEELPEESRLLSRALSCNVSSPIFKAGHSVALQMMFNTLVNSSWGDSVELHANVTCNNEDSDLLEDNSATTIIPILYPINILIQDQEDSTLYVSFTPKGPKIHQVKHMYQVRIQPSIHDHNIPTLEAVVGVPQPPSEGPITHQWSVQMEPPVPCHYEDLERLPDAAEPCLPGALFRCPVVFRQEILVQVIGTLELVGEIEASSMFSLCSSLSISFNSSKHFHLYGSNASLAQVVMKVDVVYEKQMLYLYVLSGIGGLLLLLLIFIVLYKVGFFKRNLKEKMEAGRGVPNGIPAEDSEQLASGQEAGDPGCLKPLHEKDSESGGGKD
UniProt P20701, sequence (P05107 23-769, chain 2 of 2, further chain): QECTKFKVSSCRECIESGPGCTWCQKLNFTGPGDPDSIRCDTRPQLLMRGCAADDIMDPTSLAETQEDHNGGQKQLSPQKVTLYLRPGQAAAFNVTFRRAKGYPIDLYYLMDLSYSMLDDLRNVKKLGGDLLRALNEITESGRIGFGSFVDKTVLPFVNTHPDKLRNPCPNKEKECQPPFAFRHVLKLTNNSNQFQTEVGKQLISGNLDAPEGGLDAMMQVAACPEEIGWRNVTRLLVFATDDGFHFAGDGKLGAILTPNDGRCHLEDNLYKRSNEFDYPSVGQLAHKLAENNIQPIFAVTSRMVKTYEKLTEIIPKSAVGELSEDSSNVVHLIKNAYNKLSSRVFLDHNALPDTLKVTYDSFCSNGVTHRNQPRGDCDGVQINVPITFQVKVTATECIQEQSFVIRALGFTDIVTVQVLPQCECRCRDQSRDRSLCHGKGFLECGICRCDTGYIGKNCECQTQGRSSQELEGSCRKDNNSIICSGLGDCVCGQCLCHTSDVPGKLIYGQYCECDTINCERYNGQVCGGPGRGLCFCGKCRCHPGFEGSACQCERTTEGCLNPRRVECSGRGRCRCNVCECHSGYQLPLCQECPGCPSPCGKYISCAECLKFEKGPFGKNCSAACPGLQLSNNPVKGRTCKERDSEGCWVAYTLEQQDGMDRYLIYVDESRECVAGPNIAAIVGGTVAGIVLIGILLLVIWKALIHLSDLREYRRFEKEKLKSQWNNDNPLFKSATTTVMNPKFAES

With “soluble ICAM-1 (sICAM-1) (domain or fragment)”, the IC50 in experiment [1] was determined as 150 µM.

In experiment [2], “ICAM-1 GPI on transfected baby hamster kidney cells (domain or fragment)” yielded a percent cells free of 73%, a percent cells rolling of 0% and a percent cells stable of 26%.
